Measurements reported in patent US20120107244A1 (UNIVERSIT T ULM, published 2012).

Target: the molecule itself
Assay: gel filtration (Superdex 200); elution volume against monomer, dimer and tetramer standards

B1: monomeric eqFP611 variant as set forth in SEQ ID No. 1 (mRuby) (other)
chain: MNSLIKENMRMKVVLEGSVNGHQFKCTGEGEGNPYMGTQTMRIKVIEGGPLPFAFDILATSFMYGSRTFIKYPKGIPDFFKQSFPEGFTWERVTRYEDGGVITVMQDTSLEDGCLVYHAQVRGVNFPSNGAVMQKKTKGWEPNTEMMYPADGGLRGYTHMALKVDGGGHLSCSFVTTYRSKKTVGNIKMPGIHAVDHRLERLEESDNEMFVVQREHAVAKFAGLGGG
notes: not shown: N-terminal poly-His tag from the pQE-32 vector
  binding result: no binding (tested: 4-30 mg/ml (0.16-1.2 mM))
